Where two headings read alike, the source gives them in different places.
T1: human IL-36R overexpressed on 293T-hIL36R-NFκB cells (human, UniProt Q9HB29 20-575)
T1 sequence: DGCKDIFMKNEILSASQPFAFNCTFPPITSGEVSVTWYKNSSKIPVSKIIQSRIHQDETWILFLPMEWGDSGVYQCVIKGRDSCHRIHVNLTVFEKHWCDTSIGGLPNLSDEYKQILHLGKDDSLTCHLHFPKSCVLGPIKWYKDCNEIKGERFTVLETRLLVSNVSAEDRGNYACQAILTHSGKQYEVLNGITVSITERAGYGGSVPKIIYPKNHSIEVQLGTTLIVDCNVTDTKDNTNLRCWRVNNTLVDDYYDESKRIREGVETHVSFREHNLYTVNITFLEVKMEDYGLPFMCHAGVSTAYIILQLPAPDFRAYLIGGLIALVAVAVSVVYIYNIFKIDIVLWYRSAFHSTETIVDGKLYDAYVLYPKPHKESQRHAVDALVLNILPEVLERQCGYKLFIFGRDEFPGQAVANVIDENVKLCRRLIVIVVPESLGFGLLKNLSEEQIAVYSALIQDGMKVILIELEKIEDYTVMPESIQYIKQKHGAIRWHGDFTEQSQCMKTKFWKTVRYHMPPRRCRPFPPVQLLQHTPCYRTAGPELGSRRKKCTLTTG

T2: cynomolgus IL-36R overexpressed on 293T-CynoIL36R-NFκB cells (cynomolgus monkey)
T2 chain: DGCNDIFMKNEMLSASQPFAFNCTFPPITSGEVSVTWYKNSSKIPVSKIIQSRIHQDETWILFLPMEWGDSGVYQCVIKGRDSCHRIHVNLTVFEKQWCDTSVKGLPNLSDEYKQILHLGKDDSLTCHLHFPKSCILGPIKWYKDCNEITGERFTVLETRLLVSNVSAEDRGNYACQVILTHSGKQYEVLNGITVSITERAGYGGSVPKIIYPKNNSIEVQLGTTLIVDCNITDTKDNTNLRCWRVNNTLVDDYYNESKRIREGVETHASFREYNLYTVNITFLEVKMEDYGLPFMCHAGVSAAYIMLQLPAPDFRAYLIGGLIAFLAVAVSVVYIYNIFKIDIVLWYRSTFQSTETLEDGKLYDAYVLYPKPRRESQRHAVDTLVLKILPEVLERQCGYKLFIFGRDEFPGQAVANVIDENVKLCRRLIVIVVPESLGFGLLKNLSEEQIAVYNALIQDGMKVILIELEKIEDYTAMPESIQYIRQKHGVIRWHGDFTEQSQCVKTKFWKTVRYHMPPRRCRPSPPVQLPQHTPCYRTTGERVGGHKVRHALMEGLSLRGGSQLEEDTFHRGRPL

T3: IL-36R naturally expressed on OVCAR8 cells and on normal human epidermal keratinocytes (NHK cells) (human, UniProt Q9HB29 20-575)
T3 sequence (looked up): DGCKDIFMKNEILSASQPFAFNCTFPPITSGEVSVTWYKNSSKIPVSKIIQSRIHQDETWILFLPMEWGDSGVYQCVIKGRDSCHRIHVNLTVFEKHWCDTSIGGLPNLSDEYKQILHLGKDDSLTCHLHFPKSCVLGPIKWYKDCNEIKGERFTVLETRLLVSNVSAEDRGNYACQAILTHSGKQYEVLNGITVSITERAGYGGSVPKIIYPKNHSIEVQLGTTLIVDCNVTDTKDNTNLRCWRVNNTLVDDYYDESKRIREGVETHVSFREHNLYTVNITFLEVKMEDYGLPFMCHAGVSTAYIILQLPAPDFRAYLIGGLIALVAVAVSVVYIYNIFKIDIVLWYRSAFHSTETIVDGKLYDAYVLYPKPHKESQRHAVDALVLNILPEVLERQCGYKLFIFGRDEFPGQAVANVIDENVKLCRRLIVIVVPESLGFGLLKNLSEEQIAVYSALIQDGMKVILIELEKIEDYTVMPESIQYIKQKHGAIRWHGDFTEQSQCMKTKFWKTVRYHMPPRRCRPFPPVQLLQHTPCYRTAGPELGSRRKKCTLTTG

T4: Human IL-1Rrp2/IL-1R6 protein, His Tag (ACROBiosystems, IL2-H52H6) (human, UniProt Q9HB29 20-335)
T4 construct: Bought protein; the soluble protein is likely only the extracellular part; also called hIL-36R; human IL36R antigen; not shown: His tag
T4 sequence: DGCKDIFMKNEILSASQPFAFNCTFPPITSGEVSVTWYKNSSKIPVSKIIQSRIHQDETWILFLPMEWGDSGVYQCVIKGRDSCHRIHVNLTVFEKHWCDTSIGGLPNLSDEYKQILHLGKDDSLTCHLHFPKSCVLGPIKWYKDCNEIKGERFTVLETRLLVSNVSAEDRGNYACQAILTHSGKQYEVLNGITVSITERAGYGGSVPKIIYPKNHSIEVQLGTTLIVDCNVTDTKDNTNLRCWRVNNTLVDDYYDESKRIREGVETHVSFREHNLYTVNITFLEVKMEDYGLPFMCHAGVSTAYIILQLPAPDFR


Experiments:
[1] = target: T1, human IL-36R overexpressed on …; assay: cell-based or functional assay
[2] = target: T2, cynomolgus IL-36R overexpressed on …; assay: cell-based or functional assay
[3] = target: T2, cynomolgus IL-36R overexpressed on …; assay: cell-based or functional assay
[4] = target: T2, cynomolgus IL-36R overexpressed on …; assay: cell-based or functional assay
[5] = target: T3, IL-36R naturally expressed on OVCAR8 …; assay: cell-based or functional assay
[6] = target: T3, IL-36R naturally expressed on OVCAR8 …; assay: cell-based or functional assay; remark: listed apart in the source
[7] = target: T3, IL-36R naturally expressed on OVCAR8 …; assay: cell-based or functional assay; remark: listed apart in the source
[8] = target: T3, IL-36R naturally expressed on OVCAR8 …; assay: cell-based or functional assay; remark: listed apart in the source
[9] = target: T4, Human IL-1Rrp2/IL-1R6 protein, His Tag …; assay: BLI (ForteBio Octet), antibody on ProA sensor, 1:1 model
Protocol: (§1) The affinity of anti-IL-36R antibodies to CynoIL36R-ECD mFc and human IL-1Rrp2/IL-IR6 protein, His Tag (ACROBiosystems, IL2-H52H6) was measured by a ForteBio molecular interaction instrument. […] And then the biosensor was used to bind CynoIL36R-ECD mFc or human IL-1Rrp2/IL-1R6 protein, His Tag which was diluted by a gradient (the initial concentration was 200 nM, 2-fold gradient dilution), the response signals were detected in real time using a Fortebio molecular interaction instrument (SARTORIUS, octet red 96e), and association and dissociation curves were obtained. After the completion of dissociation in each cycle, the biosensor was regenerated for the next capture; the procedure was repeated until the affinity of the different anti-IL-36R antibodies for IL-36R was determined. The resulting data were analyzed by Fortebio Data Analysis 11.0 software in a 1:1 (Langmuir) binding model to determine kₐ (kₒₙ) and kd (koff) values, and the dissociation constant KD was calculated by KD=kd/kₐ. The detection method essentially followed the manufacturer's recommendations, and more information could be found at www.fortebio.com.

[10] = target: T4, Human IL-1Rrp2/IL-1R6 protein, His Tag …; assay: as above; remark: listed apart in the source
Protocol: as §1

| IC50; NFκB-luciferase reporter in 293T-hIL36R-NFκB cells stimulated with hIL36γ, inhibition rate % [1] [nM] | IC50; NFκB-luciferase reporter in 293T-CynoIL36R-NFκB cells stimulated with hIL36α, inhibition rate % [2] [nM] | IC50; NFκB-luciferase reporter in 293T-CynoIL36R-NFκB cells stimulated with hIL36β, inhibition rate % [3] [nM] | IC50; NFκB-luciferase reporter in 293T-CynoIL36R-NFκB cells stimulated with hIL36γ, inhibition rate % [4] [nM] | IC50; IL-8 production of OVCAR8 cells stimulated with hIL36α, inhibition rate % [5] [nM] | IC50; IL-8 production of OVCAR8 cells stimulated with hIL36β, inhibition rate % [6] [nM] | IC50; IL-8 production of OVCAR8 cells stimulated with hIL36β, inhibition rate % [7] [nM] | IC50; IL-8 production of OVCAR8 cells stimulated with hIL36γ, inhibition rate % [8] [nM] | Kd [9] [nM] | koff [9] [s⁻¹] | kon [9] [M⁻¹ s⁻¹] | Kd [10] [nM] | koff [10] [s⁻¹] | kon [10] [M⁻¹ s⁻¹] | Binder |
| --- | --- | --- | --- | --- | --- | --- | --- | --- | --- | --- | --- | --- | --- | --- |
| ~13.2 | 27.7 | 56.3 | 11.8 | 0.0927 | 0.0755 | 0.0861 | 0.0592 | 0.245 | 1.57e-05 | 64100 | 0.22 | 1.29e-05 | 58600 | BI655130 (antibody, human IgG1, kappa, L234A L235A, also called Spesolimab) heavy: not shown light: QIVLTQSPGTLSLSPGERATMTCTASSSVSSSYFHWYQQKPGQAPRLWIYRTSRLASGVPDRFSGSGSGTDFTLTISRLEPEDAATYYCHQFHRSPLTFGAGTKLEIKRTVAAPSVFIFPPSDEQLKSGTASVVCLLNNFYPREAKVQWKVDNALQSGNSQESVTEQDSKDSTYSLSSTLTLSKADYEKHKVYACEVTHQGLSSPVTKSFNRGEC |
| ~13.2 |  |  |  | 0.0181 |  | 0.113 | 0.0181 |  |  |  | 0.66 | 7e-05 | 106000 | chimeric 84C4 antibody (antibody, human IgG4 S228P, kappa, Mouse variable regions on human IgG4 / kappa; also called xi84C4) heavy: not shown light: DILMTQSPSSLSASLGERVSLTCRASQDIGNALNWLQQAPDGTIKRLIYATSSLDPGVPKRFSGSRSGSDYSLTISSLASEDFVYYYCLQYASSPYTFGGGTKLEIKRTVAAPSVFIFPPSDEQLKSGTASVVCLLNNFYPREAKVQWKVDNALQSGNSQESVTEQDSKDSTYSLSSTLTLSKADYEKHKVYACEVTHQGLSSPVTKSFNRGEC |
|  | 3.32 | 3.6 | 2.38 |  | 0.116 |  |  | 0.736 | 4.38e-05 | 59600 |  |  |  | chimeric 72C1 antibody (antibody, human IgG4 S228P, kappa, Mouse variable regions on human IgG4 / kappa; also called xi72C1) heavy: not shown light: EILLTQSPAIMSATLGEKVTMSCRASSNVRYMYWYQLKSGASPKLWIYLTSNLASGVPARFSGSGSGTSYSLTISSVEAEDAATYFCQQFTTSPYTFGGGTKLEIKRTVAAPSVFIFPPSDEQLKSGTASVVCLLNNFYPREAKVQWKVDNALQSGNSQESVTEQDSKDSTYSLSSTLTLSKADYEKHKVYACEVTHQGLSSPVTKSFNRGEC |

Source: patent publication US20240270857A1 (CHIA TAI TIANQING PHARMACEUTICAL GROUP, published 2024)
